These results are taken from paper PMC4274662, “A novel cytosolic NADH:quinone oxidoreductase from Methanothermobacter marburgensis” (Bioscience Reports, 2014).

As a reminder, the Km is the concentration of substrate that gives half-maximal velocity. As usually defined, the kcat is the maximal rate divided by the concentration of active sites. The kcat/Km is the turnover number divided by the Michaelis constant.

Holding throughout (type): biochemical, Methanothermobacter marburgensis
Substrate in data set [1]: NC(=O)C1=CN([C@@H]2O[C@H](COP(=O)(O)OP(=O)(O)OC[C@H]3O[C@@H](n4cnc5c(N)ncnc54)[C@H](O)[C@@H]3O)[C@@H](O)[C@H]2O)C=CC1
Kind of data set: purified protein. Particulars: 1 mM coenzyme Q1 as acceptor, 50 mM Mops pH 7.4, 30°C.

Substrate in data set [2]: NC(=O)C1=CN([C@@H]2O[C@H](COP(=O)(O)OP(=O)(O)OC[C@H]3O[C@@H](n4cnc5c(N)ncnc54)[C@H](OP(=O)(O)O)[C@@H]3O)[C@@H](O)[C@H]2O)C=CC1
Kind of data set: purified protein. Particulars: 1 mM coenzyme Q1 as acceptor, 50 mM Mops pH 7.4, 30°C.

Substrate in data set [3]: CN(C)c1ccc(N=Nc2ccccc2C(=O)O)cc1
Kind of data set: reduction with electron donor, absorbance. Particulars: electron acceptor, donor not stated (presumably NADH), varied substrate not stated, general method varies the donor, 50 mM Mops pH 7.4, 30°C.

B1: MmNQO (Methanothermobacter marburgensis str. Marburg) (protein)
chain: MHVYILFAHPSRKSFSREVLEAFTEGLSEAGHTYEVGDLYRMNFRSELSQEEYLREISQEAGSPLPEDVMEEHERIGRADALAFIYPLWWSDCPAKLKGWFDRVWTYGYAYFYEDGERGTRIDIEKAVVLCSAGHTEEDLEGTGIAESMRSVMLGDRLLGVGVKNVTMEILGGMVPGDDSCREINLMRARRAGRNL
notes: full length 196 residues, N-terminal MAS added, non-cleavable C-terminal His6 tag (EHHHHHH) kept; pET21, E. coli BL21(DE3); 23538 Da; homodimer with FMN
In the case of B1, in data set [1], the Km came out at 96.8 µM, the kcat turned out to be 0.26 s⁻¹ and the kcat/Km is 2680 M⁻¹ s⁻¹. In data set [2], the Km was 111.6 µM, the kcat was 0.243 s⁻¹ and the kcat/Km turned out to be 2170 M⁻¹ s⁻¹. In data set [3], the Michaelis constant (Km) was 683 µM and the kcat is 6.34 min⁻¹.
